Target: GST-LC3B, Q9GZQ8
Assay: GST-pulldown, in vitro-translated 35S-labelled protein, autoradiography quantification
Settings: chain shown with the change; Means ± SD of 3 independent experiments; parent: est. 1.0; read off a plot

B1: Myc-tagged ATG14, full-length, in vitro translated, Q6ZNE5 F64A; F67A; W435A; L438A (protein)
chain: MASPSGKGARALEAPGCGPRPLARDLVDSVDDAEGLYVAVERCPLCNTTRRRLTCAKCVQSGDAVYADGRDRERFIDKKERLSRLKSKQEEFQKEVLKAMEGKWITDQLRWKIMSCKMRIEQLKQTICKGNEEMEKNSEGLLKTKEKNQKLYSRAQRHQEKKEKIQRHNRKLGDLVEKKTIDLRSHYERLANLRRSHILELTSVIFPIEEVKTGVRDPADVSSESDSAMTSSTVSKLAEARRTTYLSGRWVCDDHNGDTSISITGPWISLPNNGDYSAYYSWVEEKKTTQGPDMEQSNPAYTISAALCYATQLVNILSHILDVNLPKKLCNSEFCGENLSKQKFTRAVKKLNANILYLCFSQHVNLDQLQPLHTLRNLMYLVSPSSEHLGRSGPFEVRADLEESMEFVDPGVAGESDESGDERVSDEETDLGTDAENAPSPRFCDIPSQSVEVSQSQSTQASPPIASSSAGGMISSAAASVTSWFKAYTGHR
response: 0.6 % binding

Source: article PMC6613885
